Patent publication US20050181450A1, “Novel inositol 1,4,5-trisphosphate (IP3) receptor-binding protein and an IP3 indicator” (priority 2002, published 2005)

What was measured:
[1] = S-adenosylhomocysteine hydrolase activity in the hydrolytic direction; type: biochemical; settings: recombinant protein expressed in Escherichia coli; hydrolysis direction
Protocol: The S-adenosylhomocysteine hydrolase activity in the hydrolytic direction of recombinant IRBIT-His (open circle), GST-IRBIT (triangle), GST (square), and S-adenosylhomocysteine hydrolase (closed circle) were measured according to the known method (43). Results are shown as the mean±standard deviation from three independent experimental results.
To assay S-adenosylhomocysteine hydrolase activity in the hydrolytic direction, the color developed by the reaction between the product (Homocysteine) and 5,5′-dithiobis (2-nitrobenzoic acid) (Sigma) was measured spectroscopically using the purified IRBIT-His (3.0 μg), GST-IRBIT (4.3 μg), GST (1.3 μg) and rabbit S-adenosylhomocysteine hydrolase (Sigma) (2.4 μg), according to the known method (43). Absorbance at 412 nm was measured 0, 5, 20 and 60 minutes later using a DU 640 spectrophotometer (Beckman). Results are shown as the mean±standard deviation from three independent experiments (FIG. 2).

[2] = biological target: T1, R441Q mutant of GST-IbIIa (Mus musculus, UniProt P11881, R441Q); experiment: GST pulldown with R441Q; type: binding; settings: IRBIT in high salt extract; compared with GST-IbIIa
T1 construct: GST-IbIIa (amino acids 224-604 of mouse IP3R1) and its site-directed mutants K508A and R441Q; made in house
Excerpt: The cDNAs encoding the full-length and N-terminal region (amino acids 1-104) of IRBIT were subcloned into the Escherichia coli hexahistidine (His) fusion vector pET-23a(+) (Novagen) to generate IRBIT-His and IRBIT(1-104)-His expression vectors, respectively. The same cDNAs were subcloned into the GST fusion vector pGEX-4T-1 (Amersham Pharmacia Biotech) to generate GST-IRBIT and GST-IRBIT(1-104) expression vectors, respectively. The cDNA fragments encoding the amino acids 1-225, 1-343, 341-923, 600-1248, 916-1581 and 1553-1943 of the amino acid sequence (SEQ ID NO: 7) of mouse IP3R1 were inserted into pGEX-KG to generate GST-Ia, GST-Iab, GST-IIab, GST-IIbIIIa, GST-IIIab and GST-IV expression vectors, respectively. The amino acids 1593-2217 of mouse IP3R1 were inserted into pGEX-4T-1 to obtain GST-IV-Va expression vector. These fusion proteins were expressed in Escherichia coli. GST-EL was expressed in Sf9 cells as described above. […]
For the determination of the IRBIT binding region and the critical amino acid residue of IP3R1, the diluted high salt extract was subjected to pulldown assay as described above with 100 pmol of GST, GST-EL, GST-Ia, GST-Iab, GST-IbIIa, GST-IIab, GST-IIbIIIa, GST-IIIab, GST-IV, GST-IV-Va, K508A or R441Q, and analyzed by Western blotting with anti-IRBIT antibody.

[3] = tested on: sodium bicarbonate cotransporter; experiment: Immunoprecipitation from mouse cerebellum and mass spectrometry; type: binding; settings: mouse cerebellar cytosol or microsome detergent extract
Protocol: Mouse cerebellar cytosol fraction or detergent extract of microsome fraction was immunoprecipitated with 50 μg of anti-IRBIT antibody or rabbit IgG. Immunoprecipitates were separated by 10% SDS-PAGE gel, and stained with Coomassie Brilliant Blue. The bands were excised from the gel and digested with lysyl endopeptidase and analyzed with mass spectrometry. Arrows indicate the bands of sodium bicarbonate cotransporter.
Mouse cerebellar cytosol fraction or detergent extract of microsome fraction was immunoprecipitated with 50 μg of anti-IRBIT antibody or rabbit IgG. Immunoprecipitates were separated by 10% SDS-PAGE gel, and stained with Coomassie Brilliant Blue (FIG. 13). The bands were excised from the gel and digested with lysyl endopeptidase and analyzed with mass spectrometry. Arrows indicate the bands of sodium bicarbonate cotransporter.

T1 sequence (P11881 224-604 R441Q): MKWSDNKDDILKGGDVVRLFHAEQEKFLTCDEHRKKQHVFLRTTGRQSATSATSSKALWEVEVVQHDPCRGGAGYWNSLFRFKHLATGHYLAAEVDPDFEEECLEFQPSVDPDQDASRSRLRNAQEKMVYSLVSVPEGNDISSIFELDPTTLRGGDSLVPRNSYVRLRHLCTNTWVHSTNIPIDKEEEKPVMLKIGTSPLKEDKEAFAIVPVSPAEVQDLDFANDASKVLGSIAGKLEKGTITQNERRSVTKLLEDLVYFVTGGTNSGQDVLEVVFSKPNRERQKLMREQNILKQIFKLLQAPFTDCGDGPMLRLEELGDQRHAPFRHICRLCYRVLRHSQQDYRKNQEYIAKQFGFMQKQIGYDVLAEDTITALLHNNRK

B1: IRBIT: novel IP3 receptor-binding protein of 530 amino acids, SEQ ID NO: 1 (protein, listed as Mus musculus)
chain: MSMPDAMPLPGVGEELKQAKEIEDAEKYSFMATVTKAPKKQIQFADDMQEFTKFPTKTGRRSLSRSISQSSTDSYSSAASYTDSSDDEVSPREKQQTNSKGSSNFCVKNIKQAEFGRREIEIAEQDMSALISLRKRAQGEKPLAGAKIVGCTHITAQTAVLIETLCALGAQCRWSACNIYSTQNEVAAALAEAGVAVFAWKGESEDDFWWCIDRCVNMDGWQANMILDDGGDLTHWVYKKYPNVFKKIRGIVEESVTGVHRLYQLSKAGKLCVPAMNVNDSVTKQKFDNLYCCRESILDGLKRTTDVMFGGKQVVVCGYGEVGKGCCAALKALGAIVYITEIDPICALQACMDGFRVVKLNEVIRQVDVVITCTGNKNVVTREHLDRMKNSCIVCNMGHSNTEIDVTSLRTPELTWERVRSQVDHVIWPDGKRVVLLAEGRLLNLSCSTVPTFVLSITATTQALALIELYNAPEGRYKQDVYLLPKKMDEYVASLHLPSFDAHLTELTDDQAKYLGLNKNGPFKPNYYRY
S-adenosylhomocysteine hydrolase activity [1]: no S-adenosylhomocysteine hydrolase activity | binding to R441Q [2]: to the same extent | interaction with sodium bicarbonate cotransporter [3]: interacted
